Measurements reported in the RNAGym collection of RNA variant scans (doi:10.7554/elife.80360).

B1: Twister Ribozyme (parent)
chain: AACACUGCCAAUGCCGGUCCCAAGCCCGGAUAAAAGUGGAGGGGGCGG

Variants of: B1
Assay: self-cleavage, relative activity (ratio to wild type); higher = more cleavage; co-transcriptional
G7C G29C gave a self-cleavage of 0.0533.
For G7C G29A, the self-cleavage was 0.0857.
For G7U U12A, the self-cleavage was 0.0775.
With G7U U12C the self-cleavage was 0.0693.
G7U U12G showed a self-cleavage of 0.208.
Variant G7A G39U has a self-cleavage of 0.15.
G7A G39C showed a self-cleavage of 0.141.
Variant G7A G39A has a self-cleavage of 0.171.
Work on G7U A30U yielded a self-cleavage of 0.0836.
G7U A30C showed a self-cleavage of 0.0485.
Work on G7U C8G yielded a self-cleavage of 0.114.
G7U C9U showed a self-cleavage of 0.0542.
For G7U A32U, the self-cleavage was 0.101.
G7U A32G showed a self-cleavage of 0.0756.
Work on G7C A10C yielded a self-cleavage of 0.0829.
In the case of G7C A10U, the self-cleavage is reported as 0.0545.
In the case of G7C A10G, the self-cleavage is reported as 0.0662.
In the case of G7U C27G, the self-cleavage is reported as 0.0829.
In the case of G7A G24U, the self-cleavage is reported as 0.0739.
G7C G48C gave a self-cleavage of 0.0656.
Variant G7C C20G has a self-cleavage of 0.0473.
G7C C20U gave a self-cleavage of 0.122.
For G7A A34U, the self-cleavage was 0.154.
G7C G41U showed a self-cleavage of 0.0511.
G7C G41C gave a self-cleavage of 0.0623.
For G7A G29C, the self-cleavage was 0.12.
Work on G7A G29U yielded a self-cleavage of 0.339.
For G7A G41U, the self-cleavage was 0.11.
With C8A C25G the self-cleavage was 0.0894.
C8A C25U showed a self-cleavage of 0.125.
G7C U12C gave a self-cleavage of 0.0838.
With G7U G28A the self-cleavage was 0.0571.
With C8G G47U the self-cleavage was 0.142.
For C8G G47A, the self-cleavage was 0.208.
With C8G G47C the self-cleavage was 0.186.
With G7C A23U the self-cleavage was 0.0664.
With G7C G44A the self-cleavage was 0.0625.
Variant G7C G44U has a self-cleavage of 0.0818.
U6G U18A gave a self-cleavage of 0.0684.
U6G U18C showed a self-cleavage of 0.131.
G7U G13A showed a self-cleavage of 0.0636.
Work on G7U G13C yielded a self-cleavage of 0.0504.
In the case of C8G A10U, the self-cleavage is reported as 0.429.
For C8A A32G, the self-cleavage was 0.331.
C8A A32C gave a self-cleavage of 0.42.
G7C C25G showed a self-cleavage of 0.218.
In the case of G7C C25A, the self-cleavage is reported as 0.0795.
In the case of G7U G44A, the self-cleavage is reported as 0.19.
Variant G7U G44U has a self-cleavage of 0.0819.
G7A C14G showed a self-cleavage of 0.0811.
In the case of G7A C14U, the self-cleavage is reported as 0.43.
G7C C8U gave a self-cleavage of 0.0597.
G7C C8G showed a self-cleavage of 0.0684.
For U6G G39C, the self-cleavage was 0.124.
With U6G G39U the self-cleavage was 0.105.
In the case of C8G, the self-cleavage is reported as 0.558.
C8U gave a self-cleavage of 0.777.
C8A gave a self-cleavage of 0.61.
Variant C8A A11G has a self-cleavage of 0.588.
Variant C8A A11C has a self-cleavage of 0.514.
C8A A11U showed a self-cleavage of 0.7.
For C8G C15A, the self-cleavage was 0.0877.
For C8G C15U, the self-cleavage was 0.534.
For C8G G42C, the self-cleavage was 0.221.
C8G G42A showed a self-cleavage of 0.131.
U6G U31A showed a self-cleavage of 0.169.
For U6G U31C, the self-cleavage was 0.365.
Work on G7A G36A yielded a self-cleavage of 0.109.
G7A C15G gave a self-cleavage of 0.0625.
Variant G7U U31G has a self-cleavage of 0.131.
G7U U31A showed a self-cleavage of 0.133.
G7A A10U gave a self-cleavage of 0.505.
G7A A10G showed a self-cleavage of 0.982.
In the case of G7A A10C, the self-cleavage is reported as 0.459.
Variant G7A C21U has a self-cleavage of 0.103.
Work on G7A C21A yielded a self-cleavage of 0.059.
G7C C9U gave a self-cleavage of 0.101.
Work on G7C C9G yielded a self-cleavage of 0.0747.
G7C A34U gave a self-cleavage of 0.067.
Variant G7C A34C has a self-cleavage of 0.118.
For G7C A34G, the self-cleavage was 0.061.
G7U C25U showed a self-cleavage of 0.302.
Variant G7U C25A has a self-cleavage of 0.224.
Variant C8A G43A has a self-cleavage of 0.177.
C8A G43U gave a self-cleavage of 0.119.
C8A C26U showed a self-cleavage of 0.098.
Work on G7U C15A yielded a self-cleavage of 0.0847.
Work on G7U C21G yielded a self-cleavage of 0.0215.
In the case of G7U C21U, the self-cleavage is reported as 0.0705.
G7U A34G gave a self-cleavage of 0.0851.
G7U A34C showed a self-cleavage of 0.0467.
For G7C C26A, the self-cleavage was 0.0601.
Variant G7C C26G has a self-cleavage of 0.0717.
Work on C8A U37G yielded a self-cleavage of 0.3.
Work on C8A U37C yielded a self-cleavage of 0.144.
With G7U G47U the self-cleavage was 0.0775.
G7U G47C gave a self-cleavage of 0.0954.
C8A A30G showed a self-cleavage of 0.567.
For G7U A33U, the self-cleavage was 0.109.
In the case of U6G G36C, the self-cleavage is reported as 0.0766.
U6G G36U showed a self-cleavage of 0.0341.
C8G U18G showed a self-cleavage of 0.0605.
In the case of C8G U18C, the self-cleavage is reported as 0.0751.
Work on G7C G28A yielded a self-cleavage of 0.0408.
In the case of G7C G28U, the self-cleavage is reported as 0.093.
In the case of U6G G42C, the self-cleavage is reported as 0.156.
With U6G G42U the self-cleavage was 0.0829.
C8G C25G showed a self-cleavage of 0.0929.
C8G C25A showed a self-cleavage of 0.0886.
Work on G7A C46A yielded a self-cleavage of 0.354.
G7C C27A gave a self-cleavage of 0.0706.
With G7C C27G the self-cleavage was 0.073.
Variant G7C C27U has a self-cleavage of 0.0315.
For C8A G16U, the self-cleavage was 0.144.
C8A C27U showed a self-cleavage of 0.101.
Work on C8A G39A yielded a self-cleavage of 0.154.
For C8A G39C, the self-cleavage was 0.148.
In the case of G7A G43A, the self-cleavage is reported as 0.176.
For G7A G43C, the self-cleavage was 0.123.
In the case of C8A G47A, the self-cleavage is reported as 0.26.
C8A G47C gave a self-cleavage of 0.169.
Work on C8A G47U yielded a self-cleavage of 0.156.
For G7C U18A, the self-cleavage was 0.0787.
Variant C8A U31G has a self-cleavage of 0.57.
G7U C14U gave a self-cleavage of 0.0997.
In the case of C8A G28C, the self-cleavage is reported as 0.159.
For C8A G28U, the self-cleavage was 0.22.
In the case of C8A G24U, the self-cleavage is reported as 0.841.
C8A G24C gave a self-cleavage of 0.31.
Variant G7A G47C has a self-cleavage of 0.185.
G7A G47U showed a self-cleavage of 0.19.
With G7U G16U the self-cleavage was 0.0559.
For G7U G16A, the self-cleavage was 0.0674.
With G7U G48A the self-cleavage was 0.078.
U6G G38U showed a self-cleavage of 0.223.
C8G A11G showed a self-cleavage of 0.392.
Work on C8A G36C yielded a self-cleavage of 0.145.
Variant C8A G36A has a self-cleavage of 0.101.
Variant G7A U31C has a self-cleavage of 0.451.
G7A U31G showed a self-cleavage of 0.647.
Variant C8U A11G has a self-cleavage of 0.551.
With G7U C46A the self-cleavage was 0.0526.
Variant C8A C15G has a self-cleavage of 0.0688.
For C8A C15U, the self-cleavage was 0.365.
For G7C G43C, the self-cleavage was 0.0825.
With U6G U12G the self-cleavage was 0.343.
U6G U12C showed a self-cleavage of 0.35.
U6G U12A gave a self-cleavage of 0.769.
Work on G7A A33G yielded a self-cleavage of 0.243.
Variant G7A A33C has a self-cleavage of 0.211.
For C8G C20G, the self-cleavage was 0.0475.
C8G C20A showed a self-cleavage of 0.11.
Work on C8G U12A yielded a self-cleavage of 0.609.
C8G U12C showed a self-cleavage of 0.435.
G7U G29A showed a self-cleavage of 0.0635.
Work on G7U G29C yielded a self-cleavage of 0.0397.
In the case of C8G A40U, the self-cleavage is reported as 0.0905.
Variant C8G A40C has a self-cleavage of 0.157.
With C8G G24C the self-cleavage was 0.993.
In the case of C8G G24A, the self-cleavage is reported as 0.203.
U6G G43U gave a self-cleavage of 0.184.
Variant G7A A35U has a self-cleavage of 0.546.
Variant G7A A35G has a self-cleavage of 0.123.
With G7C A22C the self-cleavage was 0.0571.
With G7A A22U the self-cleavage was 0.103.
Variant G7A A22C has a self-cleavage of 0.519.
G7A A22G showed a self-cleavage of 0.0675.
